# In patent US20230250154A1 (CYTONICS, published 2023):
# T1: Cathepsin G (UniProt P08311 21-244)
# T1 sequence (looked up): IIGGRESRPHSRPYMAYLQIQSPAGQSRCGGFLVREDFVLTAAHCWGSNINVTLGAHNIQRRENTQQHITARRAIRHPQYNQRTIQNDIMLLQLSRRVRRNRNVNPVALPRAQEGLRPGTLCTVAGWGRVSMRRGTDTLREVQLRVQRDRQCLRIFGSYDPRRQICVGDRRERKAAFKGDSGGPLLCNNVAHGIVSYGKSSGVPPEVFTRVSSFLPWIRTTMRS
# T2: MMP1 (human, UniProt P03956 100-469, limits assumed)
# T2 sequence (looked up): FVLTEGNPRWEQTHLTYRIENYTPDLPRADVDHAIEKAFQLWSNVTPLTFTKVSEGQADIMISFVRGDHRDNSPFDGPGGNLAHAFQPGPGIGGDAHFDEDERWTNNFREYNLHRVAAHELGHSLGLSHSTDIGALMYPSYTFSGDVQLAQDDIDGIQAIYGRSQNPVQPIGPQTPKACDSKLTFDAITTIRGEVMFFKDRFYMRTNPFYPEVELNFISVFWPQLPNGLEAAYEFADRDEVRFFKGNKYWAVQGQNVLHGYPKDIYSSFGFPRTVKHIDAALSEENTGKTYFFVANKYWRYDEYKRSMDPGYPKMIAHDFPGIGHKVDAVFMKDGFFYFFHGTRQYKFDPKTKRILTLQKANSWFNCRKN
# B1: Variant A2M, bait region SEQ ID NO 131 (other)
# chain: SVSGKPQYMVLVPSLLHTETTEKGCVLLSYLNETVTVSASLESVRGNRSLFTDLEAENDVLHCVAFAVPKSSSNEEVMFLTVQVKGPTQEFKKRTTVMVKNEDSLVFVQTDKSIYKPGQTVKFRVVSMDENFHPLNELIPLVYIQDPKGNRIAQWQSFQLEGGLKQFSFPLSSEPFQGSYKVVVQKKSGGRTEHPFTVEEFVLPKFEVQVTVPKIITILEEEMNVSVCGLYTYGKPVPGHVTVSICRKYSDASDCHGEDSQAFCEKFSGQLNSHGCFYQQVKTKVFQLKRKEYEMKLHTEAQIQEEGTVVELTGRQSSEITRTITKLSFVKVDSHFRQGIPFFGQVRLVDGKGVPIPNKVIFIRGNEANYYSNATTDEHGLVQFSINTTNVMGTSLTVRVNYKDRSPCYGYQWVSEEHEEAHHTAYLVFSPSKSFVHLEPMSHELPCGHTQTVQAHYILNGGTLLGLKKLSFYYLIMAKGGIVRTGTHGLLVKQEDMKGHFSISIPVKSDIAPVARLLIYAVLPTGDVIGDSAKYDVENCLANKVDLSFSPSQSLPASHAHLRVTAAPQSVCALRAVDQSVLLMKPDAELSASSVYNLLPEKDLTGFPGPLNDQDDEDCINRHNVYINGITYTPVSSTNEKDMYSFLEDMGLKAFTNSKIRKPKMCPQLEQYEMHGPEGEGEGEGISEDLVVQIPENFFGVKEEEGLGSVEEPHTKLRKYFPETWIWDLVVVNSAGVAEVGVTVPDTITEWKAGAFCLSEDAGLGISSTASLRAFQPFFVELTMPYSVIRGEAFTLKATVLNYLPKCIRVSVQLEASPAFLAVPVEKEQAPHCICANGRQTVSWAVTPKSLGNVNFTVSAEALESQELCGTEVPSVPEHGRKDTVIKPLLVEPEGLEKETTFNSLLCPSGGEVSEELSLKLPPNVVEESARASVSVLGDILGSAMQNTQNLLQMPYGCGEQNMVLFAPNIYVLDYLNETQQLTPEIKSKAIGYLNTGYQRQLNYKHYDGSYSTFGERYGRNQGNTWLTAFVLKTFAQARAYIFIDEAHITQALIWLSQRQKDNGCFRSSGSLLNNAIKGGVEDEVTLSAYITIALLEIPLTVTHPVVRNALFCLESAWKTAQEGDHGSHVYTKALLAYAFALAGNQDKRKEVLKSLNEEAVKKDNSVHWERPQKPKAPVGHFYEPQAPSAEVEMTSYVLLAYLTAQPAPTSEDLTSATNIVKWITKQQNAQGGFSSTQDTVVALHALSKYGAATFTRTGKAAQVTIQSSGTFSSKFQVDNNNRLLLQQVSLPELPGEYSMKVTGEGCVYLQTSLKYNILPEKEEFPFALGVQTLPQTCDEPKAHTSFQISLSVSYTGSRSASNMAIVDVKMVSGFIPLKPTVKMLERSNHVSRTEVSSNHVLIYLDKVSNQTLSLFFTVLQDVPVRDLKPAIVKVYDYYETDEFAIAEYNAPCSKDLGNADYKDDDDKGASHHHHHH
# B2: Variant A2M, bait region SEQ ID NO 133 (other)
# chain: SVSGKPQYMVLVPSLLHTETTEKGCVLLSYLNETVTVSASLESVRGNRSLFTDLEAENDVLHCVAFAVPKSSSNEEVMFLTVQVKGPTQEFKKRTTVMVKNEDSLVFVQTDKSIYKPGQTVKFRVVSMDENFHPLNELIPLVYIQDPKGNRIAQWQSFQLEGGLKQFSFPLSSEPFQGSYKVVVQKKSGGRTEHPFTVEEFVLPKFEVQVTVPKIITILEEEMNVSVCGLYTYGKPVPGHVTVSICRKYSDASDCHGEDSQAFCEKFSGQLNSHGCFYQQVKTKVFQLKRKEYEMKLHTEAQIQEEGTVVELTGRQSSEITRTITKLSFVKVDSHFRQGIPFFGQVRLVDGKGVPIPNKVIFIRGNEANYYSNATTDEHGLVQFSINTTNVMGTSLTVRVNYKDRSPCYGYQWVSEEHEEAHHTAYLVFSPSKSFVHLEPMSHELPCGHTQTVQAHYILNGGTLLGLKKLSFYYLIMAKGGIVRTGTHGLLVKQEDMKGHFSISIPVKSDIAPVARLLIYAVLPTGDVIGDSAKYDVENCLANKVDLSFSPSQSLPASHAHLRVTAAPQSVCALRAVDQSVLLMKPDAELSASSVYNLLPEKDLTGFPGPLNDQDDEDCINRHNVYINGITYTPVSSTNEKDMYSFLEDMGLKAFTNSKIRKPKMCPQLEQYEMHGPIPENFFGVEGEGEGESELEGRGSSEDLVVQIVEEPHTKLRKYFPETWIWDLVVVNSAGVAEVGVTVPDTITEWKAGAFCLSEDAGLGISSTASLRAFQPFFVELTMPYSVIRGEAFTLKATVLNYLPKCIRVSVQLEASPAFLAVPVEKEQAPHCICANGRQTVSWAVTPKSLGNVNFTVSAEALESQELCGTEVPSVPEHGRKDTVIKPLLVEPEGLEKETTFNSLLCPSGGEVSEELSLKLPPNVVEESARASVSVLGDILGSAMQNTQNLLQMPYGCGEQNMVLFAPNIYVLDYLNETQQLTPEIKSKAIGYLNTGYQRQLNYKHYDGSYSTFGERYGRNQGNTWLTAFVLKTFAQARAYIFIDEAHITQALIWLSQRQKDNGCFRSSGSLLNNAIKGGVEDEVTLSAYITIALLEIPLTVTHPVVRNALFCLESAWKTAQEGDHGSHVYTKALLAYAFALAGNQDKRKEVLKSLNEEAVKKDNSVHWERPQKPKAPVGHFYEPQAPSAEVEMTSYVLLAYLTAQPAPTSEDLTSATNIVKWITKQQNAQGGFSSTQDTVVALHALSKYGAATFTRTGKAAQVTIQSSGTFSSKFQVDNNNRLLLQQVSLPELPGEYSMKVTGEGCVYLQTSLKYNILPEKEEFPFALGVQTLPQTCDEPKAHTSFQISLSVSYTGSRSASNMAIVDVKMVSGFIPLKPTVKMLERSNHVSRTEVSSNHVLIYLDKVSNQTLSLFFTVLQDVPVRDLKPAIVKVYDYYETDEFAIAEYNAPCSKDLGNADYKDDDDKGASHHHHHH
# B3: Variant A2M, bait region SEQ ID NO 135 (other)
# chain: SVSGKPQYMVLVPSLLHTETTEKGCVLLSYLNETVTVSASLESVRGNRSLFTDLEAENDVLHCVAFAVPKSSSNEEVMFLTVQVKGPTQEFKKRTTVMVKNEDSLVFVQTDKSIYKPGQTVKFRVVSMDENFHPLNELIPLVYIQDPKGNRIAQWQSFQLEGGLKQFSFPLSSEPFQGSYKVVVQKKSGGRTEHPFTVEEFVLPKFEVQVTVPKIITILEEEMNVSVCGLYTYGKPVPGHVTVSICRKYSDASDCHGEDSQAFCEKFSGQLNSHGCFYQQVKTKVFQLKRKEYEMKLHTEAQIQEEGTVVELTGRQSSEITRTITKLSFVKVDSHFRQGIPFFGQVRLVDGKGVPIPNKVIFIRGNEANYYSNATTDEHGLVQFSINTTNVMGTSLTVRVNYKDRSPCYGYQWVSEEHEEAHHTAYLVFSPSKSFVHLEPMSHELPCGHTQTVQAHYILNGGTLLGLKKLSFYYLIMAKGGIVRTGTHGLLVKQEDMKGHFSISIPVKSDIAPVARLLIYAVLPTGDVIGDSAKYDVENCLANKVDLSFSPSQSLPASHAHLRVTAAPQSVCALRAVDQSVLLMKPDAELSASSVYNLLPEKDLTGFPGPLNDQDDEDCINRHNVYINGITYTPVSSTNEKDMYSFLEDMGLKAFTNSKIRKPKMCPQLEQYEMHGPIPENFFGVSELEGRGSSEDLVVQIKEEEGLGSVEEPHTKLRKYFPETWIWDLVVVNSAGVAEVGVTVPDTITEWKAGAFCLSEDAGLGISSTASLRAFQPFFVELTMPYSVIRGEAFTLKATVLNYLPKCIRVSVQLEASPAFLAVPVEKEQAPHCICANGRQTVSWAVTPKSLGNVNFTVSAEALESQELCGTEVPSVPEHGRKDTVIKPLLVEPEGLEKETTFNSLLCPSGGEVSEELSLKLPPNVVEESARASVSVLGDILGSAMQNTQNLLQMPYGCGEQNMVLFAPNIYVLDYLNETQQLTPEIKSKAIGYLNTGYQRQLNYKHYDGSYSTFGERYGRNQGNTWLTAFVLKTFAQARAYIFIDEAHITQALIWLSQRQKDNGCFRSSGSLLNNAIKGGVEDEVTLSAYITIALLEIPLTVTHPVVRNALFCLESAWKTAQEGDHGSHVYTKALLAYAFALAGNQDKRKEVLKSLNEEAVKKDNSVHWERPQKPKAPVGHFYEPQAPSAEVEMTSYVLLAYLTAQPAPTSEDLTSATNIVKWITKQQNAQGGFSSTQDTVVALHALSKYGAATFTRTGKAAQVTIQSSGTFSSKFQVDNNNRLLLQQVSLPELPGEYSMKVTGEGCVYLQTSLKYNILPEKEEFPFALGVQTLPQTCDEPKAHTSFQISLSVSYTGSRSASNMAIVDVKMVSGFIPLKPTVKMLERSNHVSRTEVSSNHVLIYLDKVSNQTLSLFFTVLQDVPVRDLKPAIVKVYDYYETDEFAIAEYNAPCSKDLGNADYKDDDDKGASHHHHHH
# Biological target: Elastase
# Assay: cell-based or functional assay
row,Binder,Protease Inhibition (% of WT)
1,B1,300 % of WT
2,B2,350 % of WT
3,B3,300 % of WT

# Biological target: T1, Cathepsin G
# Assay: cell-based or functional assay
row,Binder,Protease Inhibition (% of WT)
1,B1,200 % of WT
2,B2,100 % of WT
3,B3,100 % of WT

# Biological target: T2, MMP1
# Assay: cell-based or functional assay
row,Binder,Protease Inhibition (% of WT)
1,B1,300 % of WT
2,B2,250 % of WT
3,B3,300 % of WT
